Activity (% of untreated reporter activity) data for one substance are collected here from patent US20120045395.

The target in this data set is SMAD3 (endogenous, A549 cells) (Homo sapiens) (UniProt P84022). Nature of the data set: cell_activity. Particulars: luciferase activity after TGF-beta in A549; indirect.
Chain of SMAD3 (endogenous, A549 cells) (Homo sapiens) (P84022 2-425): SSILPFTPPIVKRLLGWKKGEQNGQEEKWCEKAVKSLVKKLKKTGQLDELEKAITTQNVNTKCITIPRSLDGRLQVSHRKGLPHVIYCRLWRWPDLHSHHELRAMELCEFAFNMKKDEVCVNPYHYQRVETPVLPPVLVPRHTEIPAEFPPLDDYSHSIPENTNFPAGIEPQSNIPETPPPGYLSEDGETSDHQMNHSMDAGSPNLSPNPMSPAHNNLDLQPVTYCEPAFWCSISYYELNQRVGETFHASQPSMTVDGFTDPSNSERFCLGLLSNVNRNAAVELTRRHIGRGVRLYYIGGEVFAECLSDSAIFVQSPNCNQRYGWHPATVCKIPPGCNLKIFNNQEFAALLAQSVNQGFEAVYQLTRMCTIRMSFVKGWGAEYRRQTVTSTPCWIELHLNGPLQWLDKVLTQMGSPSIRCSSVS

As to “let-7d promoter -1600 to +87 luciferase reporter (p-let-7d-luc)”, the activity (% of untreated reporter activity) is below 30.
